Like-named read-outs stand apart in the source and are kept apart here.
B1: deimmunized B4 antibody DIVHv.3/VKv.2 produced by NS0 cells (antibody, human IgG1, V domains shown)
VH: QVQLVQSGAEVKKPGASVKVSCKASGYTFTDYVIHWVKQATGQGLEWIGEIYPGSGSAYSNAKFKDRVTITADKSTNTAYMELRSLRSDDTAVYFCARRGNGTGFAYWGQGTLVTVSS
VL: DIVLTQSPASLAVSPGQRATITCKAGQSVDYDGDSYMNWYQQKPGQPPKLLIYVASNLESGIPSRFSGSGSGTDFTLTINPVEENDTATYYCQQSYKDPLTFGQGTKVEIK
notes: Human IgG1 and human kappa constant regions; NS0 cells; also called DIVHv.3/V v.2; DIVH3/VK2
B2: murine monoclonal antibody B4 (antibody, V domains shown)
VH: QVQLQQSGPELVKPGASVRMSCKASGYTFTDYVIHWVKQRTGQGLEWIGEIYPGSGSAYSNAKFKDKATLTADKSSNTAYMQLSSLTSEDSAVYFCARRGNGTGFAYWGQGTLVTVSA
VL: DIVLTQSPASLAVSLGQRATISCKAGQSVDYDGDSYMNWYQQKPGQPPKLLIYVASNLESGIPARFSGSGSGTDFTLNIHPVEEEDAATYYCQQSYKDPLTFGAGTKLELK
B3: deimmunized B4 antibody DIVHv.1/VKv.3 produced by NS0 cells (antibody, human IgG1, V domains shown)
VH: QVQLVQSGPELKKPGASVKVSCKASGYTFTDYVIHWVKQATGQGLEWIGEIYPGSGSAYSNAKFKDRVTMTADKSSNTAYMELSSLTSDDTAVYFCARRGNGTGFAYWGQGTLVTVSS
VL: DIVLTQSPASLAVSPGQRATITCKAGQSVDYDGDSYMNWYQQKPGQPPKLLIYVASNLESGIPSRFSGSGSGTDFTLTINPVEENDTATYYCQQSYKDPLAFGPGTKVEIK
B4: deimmunized B4 antibody DIVHv.1/VKv.1 produced by NS0 cells (antibody, human IgG1, V domains shown)
VH: QVQLVQSGPELKKPGASVKVSCKASGYTFTDYVIHWVKQATGQGLEWIGEIYPGSGSAYSNAKFKDRVTMTADKSSNTAYMELSSLTSDDTAVYFCARRGNGTGFAYWGQGTLVTVSS
VL: DIVLTQSPASLAVSLGQRATITCKAGQSVDYDGDSYMNWYQQKPGQPPKLLIYVASNLESGIPARFSGSGSGTDFTLNIHPVEENDAATYYCQQSYKDPLTFGQGTKLEIK
B5: deimmunized B4 antibody DIVHv.3/VKv.3 produced by NS0 cells (antibody, human IgG1, V domains shown)
VH: QVQLVQSGAEVKKPGASVKVSCKASGYTFTDYVIHWVKQATGQGLEWIGEIYPGSGSAYSNAKFKDRVTITADKSTNTAYMELRSLRSDDTAVYFCARRGNGTGFAYWGQGTLVTVSS
VL: DIVLTQSPASLAVSPGQRATITCKAGQSVDYDGDSYMNWYQQKPGQPPKLLIYVASNLESGIPSRFSGSGSGTDFTLTINPVEENDTATYYCQQSYKDPLAFGPGTKVEIK
notes: Human IgG1 and human kappa constant regions; NS0 cells; also called DIVHv.3/V v.3; DIVH3/VK3
B6: deimmunized B4 antibody DIVHv.3/VKv.1 produced by NS0 cells (antibody, human IgG1, V domains shown)
VH: QVQLVQSGAEVKKPGASVKVSCKASGYTFTDYVIHWVKQATGQGLEWIGEIYPGSGSAYSNAKFKDRVTITADKSTNTAYMELRSLRSDDTAVYFCARRGNGTGFAYWGQGTLVTVSS
VL: DIVLTQSPASLAVSLGQRATITCKAGQSVDYDGDSYMNWYQQKPGQPPKLLIYVASNLESGIPARFSGSGSGTDFTLNIHPVEENDAATYYCQQSYKDPLTFGQGTKLEIK
notes: Human IgG1 and human kappa constant regions; NS0 cells; also called DIVHv.3/V v.1; DIVH3/VK1
B7: deimmunized B4 antibody DIVHv.2/VKv.3 produced by NS0 cells (antibody, human IgG1, V domains shown)
VH: QVQLVQSGAEVKKPGASVKVSCKASGYTFTDYVIHWVRQATGQGLEWIGEIYPGSGSAYSNAKFKDRVTITADKSTNTAYMELRSLRSDDTAVYFCARRGNGTGFAYWGQGTLVTVSS
VL: DIVLTQSPASLAVSPGQRATITCKAGQSVDYDGDSYMNWYQQKPGQPPKLLIYVASNLESGIPSRFSGSGSGTDFTLTINPVEENDTATYYCQQSYKDPLAFGPGTKVEIK
notes: Human IgG1 and human kappa constant regions; NS0 cells; also called DIVHv.2/V v.3; DIVH2/VK3
B8: deimmunized B4 antibody DIVHv.4/VKv.1 produced by NS0 cells (antibody, human IgG1, V domains shown)
VH: QVQLVQSGAEVKKPGASVKVSCKASGYTFTDYVIHWVRQATGQGLEWIGEIYPGSGSAYSNSKFKDRVTITADKSTNTAYMELRSLRSDDTAVYFCARRGNGTGFAYWGQGTLVTVSS
VL: DIVLTQSPASLAVSLGQRATITCKAGQSVDYDGDSYMNWYQQKPGQPPKLLIYVASNLESGIPARFSGSGSGTDFTLNIHPVEENDAATYYCQQSYKDPLTFGQGTKLEIK
notes: Human IgG1 and human kappa constant regions; NS0 cells; also called DIVHv.4/V v.1
B9: deimmunized B4 antibody DIVHv.2/VKv.1 produced by NS0 cells (antibody, human IgG1, V domains shown)
VH: QVQLVQSGAEVKKPGASVKVSCKASGYTFTDYVIHWVRQATGQGLEWIGEIYPGSGSAYSNAKFKDRVTITADKSTNTAYMELRSLRSDDTAVYFCARRGNGTGFAYWGQGTLVTVSS
VL: DIVLTQSPASLAVSLGQRATITCKAGQSVDYDGDSYMNWYQQKPGQPPKLLIYVASNLESGIPARFSGSGSGTDFTLNIHPVEENDAATYYCQQSYKDPLTFGQGTKLEIK
notes: Human IgG1 and human kappa constant regions; NS0 cells; also called DIVHv.2/V v.1; DIVH2/VK1
B10: deimmunized B4 antibody DIVHv.2/VKv.2 produced by NS0 cells (antibody, human IgG1, V domains shown)
VH: QVQLVQSGAEVKKPGASVKVSCKASGYTFTDYVIHWVRQATGQGLEWIGEIYPGSGSAYSNAKFKDRVTITADKSTNTAYMELRSLRSDDTAVYFCARRGNGTGFAYWGQGTLVTVSS
VL: DIVLTQSPASLAVSPGQRATITCKAGQSVDYDGDSYMNWYQQKPGQPPKLLIYVASNLESGIPSRFSGSGSGTDFTLTINPVEENDTATYYCQQSYKDPLTFGQGTKVEIK
notes: Human IgG1 and human kappa constant regions; NS0 cells; also called DIVHv.2/V v.2; DIVH2/VK2
B11: deimmunized B4 antibody DIVHv.1/VKv.2 produced by NS0 cells (antibody, human IgG1, V domains shown)
VH: QVQLVQSGPELKKPGASVKVSCKASGYTFTDYVIHWVKQATGQGLEWIGEIYPGSGSAYSNAKFKDRVTMTADKSSNTAYMELSSLTSDDTAVYFCARRGNGTGFAYWGQGTLVTVSS
VL: DIVLTQSPASLAVSPGQRATITCKAGQSVDYDGDSYMNWYQQKPGQPPKLLIYVASNLESGIPSRFSGSGSGTDFTLTINPVEENDTATYYCQQSYKDPLTFGQGTKVEIK

What was measured:
[1] = molecular target: T1, recombinant soluble CD4 (rsCD4) (UniProt P01730 26-396, limits assumed); assay: ELISA on rsCD4
T1 construct: Bought reagent coated on ELISA plates at 0.25 µg/ml; also called solid-phase rsCD4

[2] = molecular target: T2, CD4 on the surface of host T cells (HIV receptor complex involving CD4) (UniProt P01730 26-458, limits assumed); assay: cell-based or functional assay
[3] = molecular target: T2, CD4 on the surface of host T cells (HIV …); assay: cell-based or functional assay; remark: listed apart in the source

Binder | fold reduction in binding compared to the chimeric antibody [1] [fold] | Antibody Conc (µg/ml) at 50% Inhibition; MT-2 microplaque neutralization, HIV-1 TH036 (PBL), clade E [2] [µg/mL] | Antibody Conc (µg/ml) at 50% Inhibition; MT-2 microplaque neutralization, HIV-1 UG029 (PBL), clade A [2] [µg/mL] | Antibody Conc (µg/ml) at 50% Inhibition; MT-2 microplaque neutralization, HIV-1 VL135 (PBL), clade B [2] [µg/mL] | Antibody Conc (µg/ml) at 50% Inhibition; MT-2 microplaque neutralization, HIV-1 MN (H9 cells), clade B [3] [µg/mL] | Antibody Conc (µg/ml) at 50% Inhibition; MT-2 microplaque neutralization, HIV-1 TH036 (PBL), clade E [3] [µg/mL] | Antibody Conc (µg/ml) at 50% Inhibition; MT-2 microplaque neutralization, HIV-1 UG029 (PBL), clade A [3] [µg/mL] | Antibody Conc (µg/ml) at 50% Inhibition; MT-2 microplaque neutralization, HIV-1 UG046 (PBL), clade D [3] [µg/mL] | Antibody Conc (µg/ml) at 50% Inhibition; MT-2 microplaque neutralization, HIV-1 UG266 (PBL), clade D [3] [µg/mL] | Antibody Conc (µg/ml) at 50% Inhibition; MT-2 microplaque neutralization, HIV-1 VL135 (PBL), clade B [3] [µg/mL] | Antibody Conc (µg/ml) at 50% Inhibition; MT-2 microplaque neutralization, HIV-1 ZIM748 (PBL), clade C [3] [µg/mL]
B1 | < 3 | 0.7 | 0.92 | 0.35 |  |  |  |  |  |  | 
B2 |  | 0.24 | 0.28 | 0.17 | 14 | 0.25 | 0.44 | 0.4 | 0.4 | 0.16 | 0.21
B3 |  | 0.77 | 1 | 0.39 |  |  |  |  |  |  | 
B4 |  |  |  |  | > 100 | 0.31 | 0.47 | 2.1 | 0.82 | 0.21 | 0.45
B5 | 5 | 0.44 | 1.1 | 0.62 |  |  |  |  |  |  | 
B6 | < 3 |  |  |  | > 100 | 0.58 | 0.63 | 0.99 | 2.2 | 0.26 | 0.42
B7 | 5 | 0.62 | 1.2 | 0.67 |  |  |  |  |  |  | 
B8 | < 3 |  |  |  | > 100 | 0.35 | 0.35 | 1.1 | 7 | 0.26 | 0.28
B9 | < 3 |  |  |  | > 100 | 0.5 | 0.79 | 0.98 | 1.2 | 0.53 | 0.63
B10 | < 3 | 0.63 | 0.73 | 0.23 |  |  |  |  |  |  | 
B11 |  | 0.51 | 0.73 | 0.24 |  |  |  |  |  |  | 
